Reference: patent US20240301022A1 (ASTON UNIVERSITY, published 2024)

Legend:
[1] = molecular target: T1, human β2-adrenergic receptor (human, UniProt P07550 1-413); assay: [125I] ZAG saturation binding to crude membranes of CHO-K1 cells transfected with human β2-AR, non-linear regression
T1 construct: whole, on cells; CHO-K1 cells transfected with the human β2-AR, from the University of Nottingham; also called β2-AR; β-2AR
Protocol: (§1) Binding studies were carried out at 37° C. by incubating membranes (500 μg protein) in 0.4 ml 50 mM Tris HCl, pH 7.5, containing 0.5 mM MgCl₂ for 60 min with various concentrations of [¹²⁵I]
(§2) Non-specific binding was determined by the binding of [¹²⁵I]

[2] = molecular target: T2, human β3-adrenergic receptor (human, UniProt P13945 1-408); assay: [125I] ZAG saturation binding to crude membranes of CHO-K1 cells transfected with human β3-AR, non-linear regression
T2 construct: whole, on cells; CHO-K1 cells transfected with the β3-AR, from Astra Zeneca; also called β3-AR; β-3AR
T2 sequence (P13945 whole entry): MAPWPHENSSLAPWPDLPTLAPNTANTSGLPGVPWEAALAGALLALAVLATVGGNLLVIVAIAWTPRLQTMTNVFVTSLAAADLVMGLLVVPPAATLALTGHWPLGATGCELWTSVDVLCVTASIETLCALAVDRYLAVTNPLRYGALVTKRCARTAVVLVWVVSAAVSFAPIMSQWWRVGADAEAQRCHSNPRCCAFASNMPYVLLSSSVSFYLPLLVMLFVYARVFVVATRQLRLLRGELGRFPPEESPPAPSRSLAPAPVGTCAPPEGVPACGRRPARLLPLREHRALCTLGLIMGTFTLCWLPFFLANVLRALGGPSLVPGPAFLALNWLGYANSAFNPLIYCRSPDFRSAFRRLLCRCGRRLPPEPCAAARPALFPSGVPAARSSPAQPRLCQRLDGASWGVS
Protocol: as §1, §2

[3] = molecular target: T1, human β2-adrenergic receptor; assay: [125I] ZAG binding to crude membranes of transfected CHO-K1 cells; reference is ZAG on β3-AR
Protocol: as §1, §2

[4] = molecular target: T2, human β3-adrenergic receptor; assay: [125I] ZAG binding to crude membranes of transfected CHO-K1 cells; reference is ZAG on β2-AR
Protocol: as §1, §2

[5] = molecular target: T3, human β1-adrenergic receptor (human, UniProt P08588 1-477); assay: [125I] ZAG binding to crude membranes of CHO-K1 cells transfected with human β1-AR, non-linear regression
T3 construct: whole, on cells; CHO-K1 cells transfected with the human β1-AR, from the University of Nottingham; also called β1-AR; β-1AR
T3 sequence (P08588 whole entry): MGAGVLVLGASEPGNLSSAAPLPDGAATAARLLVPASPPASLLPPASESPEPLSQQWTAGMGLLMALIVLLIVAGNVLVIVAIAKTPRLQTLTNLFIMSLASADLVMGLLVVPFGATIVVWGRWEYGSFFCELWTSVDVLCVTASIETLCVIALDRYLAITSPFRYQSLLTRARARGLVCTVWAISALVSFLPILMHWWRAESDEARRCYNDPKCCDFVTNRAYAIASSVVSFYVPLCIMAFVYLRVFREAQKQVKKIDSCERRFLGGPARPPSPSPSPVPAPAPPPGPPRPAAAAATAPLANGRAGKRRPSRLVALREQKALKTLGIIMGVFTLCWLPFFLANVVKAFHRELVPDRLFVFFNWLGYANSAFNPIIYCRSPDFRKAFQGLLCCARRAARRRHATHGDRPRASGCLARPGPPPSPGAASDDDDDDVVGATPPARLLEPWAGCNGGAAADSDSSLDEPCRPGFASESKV
Protocol: as §1, §2

B1: recombinant human zinc-α2-glycoprotein (ZAG) (ligand)
chain: QENQDGRYSLTYIYTGLSKHVEDVPAFQALGSLNDLQFFRYNSKDRKSQPMGLWRQVEGMEDWKEDSQLQKAREDMETLKDIVEYYNDSNGSHVLQGRFGCEIENNRSSGAFWKYYYDGKDYIEFNKEIPAWVPFDPAAQITKQKWEAEPVYVQRAKAYLEEECPATLRKYLKYSKNILDRQDPPSVVVTSHQAPGEKKKLKCLAYDFYPGKIDVHWTRAGQVQEPELRGDVLHNGNGTYQSWVVVAVPPQDTAPYSCHVQHSSLAQPLVVPWEAS
modifications: 125I label (iodo bead labelling) in the membrane binding studies; labelled residues not stated
notes: Glycoprotein; also called Zn-α2-glycoprotein; rhZAG
Kd [1]: 71 nM | Kd [2]: 46 nM | Bmax relative to β3-AR [3]: 20% | Kd relative to β3-AR [3]: 2 fold | Bmax relative to β2-AR [4]: ~3 fold | Kd relative to β2-AR [4]: ~0.5 fold | binding result [5]: no binding
